B1: Chromodomain-helicase-DNA-binding protein 5, residues 338 to 390; numbered along this chain, Q8TDI0 (parent)
chain: YETDHQDYCEVCQQGGEIILCDTCPRAYHLVCLDPELEKAPEGKWSCPHCEKE

Variants of: B1
Assay: abundance fitness (aPCA) (normalised: wild type 0, dead -1); higher = more abundant; growth selection in yeast, the domain comes from the species named
Conditions: Homo sapiens

Abundance fitness of substitutions, site by site:
P35: W -0.428 | S -0.057 | Y 0.027 | C -0.313 | H -0.524 | L -0.078 | R -0.096 | Q -0.058 | T 0.069 | I -0.209 | F -0.915 | N -0.211 | K 0.082 | M 0.121 | V 0.03 | E 0.001 | G 0.181
D34: G -0.167 | K -0.347 | S 0.093 | V -0.14 | T -0.195 | C -0.161 | E 0.266 | W -0.516 | H 0.039 | L -0.201 | N -0.354 | M -0.403 | F -0.058 | R -0.125 | Q -0.098 | A 0.052 | P -0.15 | I -0.313 | Y -0.269
E38: P 0.188 | S -0.225 | F -0.053 | A -0.024 | C -0.221 | R -0.147 | L -0.115 | H -0.207 | Q -0.008 | T -0.252 | I -0.294 | M 0.042 | K -0.199 | N -0.271
L33: P -0.223 | W 0.032 | T 0.163 | C -0.272 | M 0.185 | A -0.085 | Y 0.064 | R -0.281 | G -0.389 | V -0.034 | I -0.235 | S 0.176 | F -0.013 | E -0.414 | H 0.046 | N -0.311
L30: A 0.094 | T -0.222 | H -0.194 | M 0.095 | K 0.04 | F -0.063 | G 0.092 | P -0.414 | W -0.036 | S -0.06 | Y 0.193 | N -0.047 | Q 0.107 | R 0.085 | C -0.096 | E 0.059 | D -0.206 | V -0.135 | I -0.703
L37: R 0.115 | N -0.102 | M -0.152 | G 0.032 | H -0.069 | W -0.496 | C -0.094 | V -0.026 | E -0.566 | S 0.211 | Y -0.237 | F -0.147 | T 0.101 | P -0.085 | K -0.04
H29: E -0.736 | Q -0.887 | G -0.744 | P -0.672 | S -0.882 | Y -0.719 | M -0.547 | K -0.793 | N -0.766 | L -1.14 | F -1.07 | V -1.1 | T -0.986 | W -0.822
C32: V -0.618 | Y -0.777 | P -0.885 | I -0.786 | Q -0.982 | E -0.52 | K -1.03 | H -0.765 | R -0.94 | L -0.993 | A -1 | N -0.579 | D -0.806 | M -0.926 | G -0.969 | T -1.02
V31: A -0.046 | E 0.257 | F 0.047 | Y -0.368 | H 0.018 | R -0.27 | S -0.145 | G 0.069 | L -0.104 | M -0.383 | Q -0.315 | D -0.157 | K -0.314 | W -0.566 | C -0.325 | T -0.023 | I -0.205 | N -0.193 | P 0.106
E36: S -0.163 | T -0.042 | Y -0.35 | G 0.014 | I -0.057 | M 0.069 | V 0.205 | A -0.033 | H -0.18 | F -0.237 | C -0.067 | P 0.087 | K 0.093 | W -0.321 | N -0.166 | L -0.093 | D 0.139 | Q 0.046

— the Human Domainome abundance scans (Beltran et al. 2025)
